The source of these data is US6528275B1, “Substrates and inhibitors of proteolytic enzymes” (Peptide Therapeutics Limited, priority 1996, dated 2003).

Holding throughout (assay): Der pI substrate assay with FRET peptides (fluorescence, Km, kcat/Km)
What all share (assay type): biochemical, house dust mite
Holding throughout (conditions): other: purified Der pI; peptides SEQ ID Nos. 1-76; pH 8.25

Substrate in series [1]: CCCC[C@H](NC(=O)[C@H](C)NC(=O)[C@@H](NC(=O)[C@H](CCCCN)NC(=O)c1ccccc1N)C(C)C)C(=O)N[C@@H](CO)C(=O)N[C@@H](Cc1ccc(O)c([N+](=O)[O-])c1)C(=O)N[C@@H](CC(=O)O)C(N)=O
As for the experimental part:
(§1) Using the general techniques described above, the following compounds were prepared and assayed as potential substrates against Der pI purified as described above.
(§2) Each mixture of 20 compounds in the libraries of the apparatus described herein was screened at a concentration of 1.0 μM per compound in an assay against the cysteinyl protease Der pI.
(§3) Plate assays were carried out in 96 well plate format, using 0.1 ug of Der pI per 100 μL assay volume in each well and using 20 μM of the substrate. All assays were performed in Assay Buffer (AB; 50 mM potassium phosphate, pH 8.25 containing 1 mM ethylenediaminetetraacetic acid (EDTA) and 1 mM dithiothreitol (DTT). The Der pI enzyme is pre-activated by addition of DTT and this in incubated at room temperature for 5 min. prior to initiation of the assay. As an example for the screening methodology, each well contains a 5 μL of a 20 μM solution of the test compound in DMSO, 10 μL of a 200 μM aqueous solution of the substrate, 2, and 85 μL of Der pI in AB is added to initiate the reaction. Enzyme activity is monitored by fluorescence using 320 nm for excitation and 420 nm for the emission wavelengths using a Labsystems Fluroskan Ascent machine. Kinetic measurements were carried out using a Hitachi F-4500 Fluorescence Spectrophotometer.

Substrate in series [2]: CC(C)CC[C@H](NC(=O)[C@H](C)NC(=O)[C@H](Cc1ccc(-c2ccccc2)cc1)NC(=O)c1ccccc1N)C(=O)N[C@@H](CCCCN)C(=O)N[C@@H](Cc1ccc(O)c([N+](=O)[O-])c1)C(=O)N[C@@H](CC(=O)O)C(N)=O
As to the method: as §1, §2, §3

Substrate in series [3]: CC(C)CC[C@H](NC(=O)[C@H](C)NC(=O)[C@H](Cc1ccc2ccccc2c1)NC(=O)c1ccccc1N)C(=O)N[C@@H](CO)C(=O)N[C@@H](Cc1ccc(O)c([N+](=O)[O-])c1)C(=O)N[C@@H](CC(=O)O)C(N)=O
As for the experimental part:
as §1, §2, §3

Substrate in series [4]: CC(C)[C@H](NC(=O)c1ccccc1N)C(=O)N[C@@H](C)C(=O)N[C@@H](CC1CCCCC1)C(=O)N[C@@H](CO)C(=O)N[C@@H](Cc1ccc(O)c([N+](=O)[O-])c1)C(=O)N[C@@H](CC(=O)O)C(N)=O
As for the experimental part: as §1, §2, §3

Substrate in series [5]: CC(C)CC[C@H](NC(=O)[C@H](C)NC(=O)[C@H](Cc1ccc(-c2ccccc2)cc1)NC(=O)c1ccccc1N)C(=O)N[C@@H](CC1CCCCC1)C(=O)N[C@@H](Cc1ccc(O)c([N+](=O)[O-])c1)C(=O)N[C@@H](CC(=O)O)C(N)=O
As for the experimental part: as §1, §2, §3

Substrate in series [6]: CC(C)CC[C@H](NC(=O)[C@H](C)NC(=O)[C@H](CC[S+](C)[O-])NC(=O)c1ccccc1N)C(=O)N[C@@H](CO)C(=O)N[C@@H](Cc1ccc(O)c([N+](=O)[O-])c1)C(=O)N[C@@H](CC(=O)O)C(N)=O
As to the method: as §1, §2, §3

Substrate in series [7]: CCCC[C@H](NC(=O)[C@H](C)NC(=O)[C@@H](NC(=O)c1ccccc1N)C(C)C)C(=O)N[C@@H](CO)C(=O)N[C@@H](Cc1ccc(O)c([N+](=O)[O-])c1)C(=O)N[C@@H](CC(=O)O)C(N)=O
As to the method:
as §1, §2, §3

Substrate in series [8]: CC(C)CC[C@H](NC(=O)[C@H](C)NC(=O)[C@H](Cc1ccc(-c2ccccc2)cc1)NC(=O)c1ccccc1N)C(=O)N[C@H](C(=O)N[C@@H](Cc1ccc(O)c([N+](=O)[O-])c1)C(=O)N[C@@H](CC(=O)O)C(N)=O)C(C)(C)C
As for the experimental part: as §1, §2, §3

Substrate in series [9]: CC(C)[C@H](NC(=O)c1ccccc1N)C(=O)N[C@@H](C)C(=O)N[C@@H](CCC(N)=O)C(=O)N[C@@H](CO)C(=O)N[C@@H](Cc1ccc(O)c([N+](=O)[O-])c1)C(=O)N[C@@H](CC(=O)O)C(N)=O
As to the method: as §1, §2, §3

Substrate in series [10]: CC(C)CC[C@H](NC(=O)[C@H](C)NC(=O)[C@H](Cc1ccc(-c2ccccc2)cc1)NC(=O)c1ccccc1N)C(=O)N1C[C@H](O)C[C@H]1C(=O)N[C@@H](Cc1ccc(O)c([N+](=O)[O-])c1)C(=O)N[C@@H](CC(=O)O)C(N)=O
As to the method:
as §1, §2, §3

Substrate in series [11]: CC(C)CC[C@H](NC(=O)[C@H](C)NC(=O)[C@H](CC(C)C)NC(=O)c1ccccc1N)C(=O)N[C@@H](CO)C(=O)N[C@@H](Cc1ccc(O)c([N+](=O)[O-])c1)C(=O)N[C@@H](CC(=O)O)C(N)=O
As to the method: as §1, §2, §3

Substrate in series [12]: CC(C)CC[C@H](NC(=O)[C@H](CC[S+](C)[O-])NC(=O)[C@@H](NC(=O)c1ccccc1N)C(C)C)C(=O)N[C@@H](CO)C(=O)N[C@@H](Cc1ccc(O)c([N+](=O)[O-])c1)C(=O)N[C@@H](CC(=O)O)C(N)=O
As to the method:
as §1, §2, §3

One may read the Km as the concentration of substrate that gives half-maximal velocity.

B1: Der pI (Dermatophagoides pteronyssinus) (protein)
chain: TNACSINGNAPAEIDLRQMRTVTPIRMQGGCGSCWAFSGVAATESAYLAYRNQSLDLAEQELVDCASQHGCHGDTIPRGIEYIQHNGVVQESYYRYVAREQSCRRPNAQRFGISNYCQIYPPNVNKIREALAQTHSAIAVIIGIKDLDAFRHYDGRTIIQRDNGYQPNYHAVNIVGYSNAQGVDYWIVRNSWDTNWGDNGYGYFAANIDLMMIEEYPYVVIL
notes: tissue SmithKline-Beecham, U.K (crude mite extract); host or cells: crude house dust mite extract
Consider B1, for which the Km in series [1] was 15 µM; in [2] it was 2 µM; in series [3] it was 15 µM; in series [4] it was 5 µM; in series [5] it was 2.5 µM; in series [6], 20 µM. Moreover, the Km in series [7] came out at 12 µM; in series [8] it was 4 µM; in [9], 6 µM; in [10] it was 4 µM; in series [11] it was 18 µM; in [12], 35 µM.
